# B1: wt Δ20-rePON1-192K: truncated rePON1 variant lacking the first 20 amino acids of the hydrophobic N-terminus, 192K (protein)
# chain: MAKSSFQTRFNVHREVTPVELPNCNLVKGVDNGSEDLEILPNGLAFISSGLKYPGIMSFDPDKSGKILLMDLNEEDPVVLELGITGNTLDISSFNPHGISTFTDEDNTVYLLVVNHPDSSSTVEVFKFQEEEKSLLHLKTIRHKLLPSVNDIVAVGPEHFYATNDHYFADPYLKSWEMHLGLAWSFVTYYSPNDVRVVAEGFDFANGINISPDGKYVYIAELLAHKIHVYEKHANWTLTPLKSLDFDTLVDNISVDPVTGDLWVGCHPNGMRIFYYDPKNPPGSEVLRIQDILSEEPKVTVVYAENGTVLQGSTVAAVYKGKLLIGTVFHKALYCEL
# modifications: Delta20-rePON1-192K isozyme
# notes: truncated rePON1 variant lacking the first 20 amino acids of the hydrophobic N-terminus, 192K
# B2: Δ20-rePON1-192R: truncated rePON1 variant lacking the first 20 N-terminal amino acids, 192R isozyme (protein)
# chain: MAKSSFQTRFNVHREVTPVELPNCNLVKGVDNGSEDLEILPNGLAFISSGLKYPGIMSFDPDKSGKILLMDLNEEDPVVLELGITGNTLDISSFNPHGISTFTDEDNTVYLLVVNHPDSSSTVEVFKFQEEEKSLLHLKTIRHKLLPSVNDIVAVGPEHFYATNDHYFADPYLRSWEMHLGLAWSFVTYYSPNDVRVVAEGFDFANGINISPDGKYVYIAELLAHKIHVYEKHANWTLTPLKSLDFDTLVDNISVDPVTGDLWVGCHPNGMRIFYYDPKNPPGSEVLRIQDILSEEPKVTVVYAENGTVLQGSTVAAVYKGKLLIGTVFHKALYCEL
# modifications: Delta20-rePON1-192R isozyme
# notes: truncated rePON1 variant lacking the first 20 N-terminal amino acids, 192R isozyme
# B3: Δ20-rePON1-192Q: truncated rePON1 variant lacking the first 20 N-terminal amino acids, 192Q isozyme (protein)
# chain: MAKSSFQTRFNVHREVTPVELPNCNLVKGVDNGSEDLEILPNGLAFISSGLKYPGIMSFDPDKSGKILLMDLNEEDPVVLELGITGNTLDISSFNPHGISTFTDEDNTVYLLVVNHPDSSSTVEVFKFQEEEKSLLHLKTIRHKLLPSVNDIVAVGPEHFYATNDHYFADPYLQSWEMHLGLAWSFVTYYSPNDVRVVAEGFDFANGINISPDGKYVYIAELLAHKIHVYEKHANWTLTPLKSLDFDTLVDNISVDPVTGDLWVGCHPNGMRIFYYDPKNPPGSEVLRIQDILSEEPKVTVVYAENGTVLQGSTVAAVYKGKLLIGTVFHKALYCEL
# modifications: Delta20-rePON1-192Q isozyme
# notes: truncated rePON1 variant lacking the first 20 N-terminal amino acids, 192Q isozyme
# B4: rePON1-192Q: recombinant PON1 with glutamine at position 192, generated to mimic the human Q isozyme (protein)
# chain: MAKLTALTLLGLGLALFDGQKSSFQTRFNVHREVTPVELPNCNLVKGVDNGSEDLEILPNGLAFISSGLKYPGIMSFDPDKSGKILLMDLNEEDPVVLELGITGNTLDISSFNPHGISTFTDEDNTVYLLVVNHPDSSSTVEVFKFQEEEKSLLHLKTIRHKLLPSVNDIVAVGPEHFYATNDHYFADPYLQSWEMHLGLAWSFVTYYSPNDVRVVAEGFDFANGINISPDGKYVYIAELLAHKIHVYEKHANWTLTPLKSLDFDTLVDNISVDPVTGDLWVGCHPNGMRIFYYDPKNPPGSEVLRIQDILSEEPKVTVVYAENGTVLQGSTVAAVYKGKLLIGTVFHKALYCEL
# modifications: rePON1-192Q isozyme
# notes: recombinant PON1 with glutamine at position 192, generated to mimic the human Q isozyme
# How the values were obtained:
# apoA-I rHDL [1] = assay: Surface plasmon resonance binding of Δ20-rePON1 192 isozymes to immobilized rHDL-apoA-I; details: for Kd / koff / kon: SPR, 25° C., biotinylated rHDL-apoA-I on streptavidin chip
# Procedure: FIGS. 2A-C are sensorgrams for the binding of wt Δ20-rePON1-192K—SEQ ID NO:8 (FIG. 2A), Δ20-rePON1-192R—SEQ ID NO:10 (FIG. 2B) and Δ20-rePON1-192Q—SEQ ID NO:12 (FIG. 2C) isozymes to rHDL-apoA-I. Biotinylated rHDL-apoA-I particles were immobilized onto the streptavidin surface (SA chip), and a series of PON1 concentrations were injected over the immobilized and blank surfaces to obtain the net binding response. Binding was performed at 25° C. Association and dissociation phases were fitted to a single exponential, from which kinetic rate constants were derived. PON1 concentrations in all the sensorgrams are (from bottom to top) 25, 40, 60, 80, 100, 150 and 200 nM;
# Surface plasmon resonance (SPR) measurements: rHDL-apoA-I particles containing 0.7% of N-biotinyl-dipalmitoylphosphatidylethanolamine (N-biotynyl-DPPE; Avanti Polar Lipids) were prepared and purified as described [Gaidukov, L. and D. S. Tawfik, Biochemistry, 2005. 44(35): p. 11843-54]. SPR was performed on BIAcore 3000 (Uppsala, Sweden) as described [Gaidukov, L. and D. S. Tawfik, Biochemistry, 2005. 44(35): p. 11843-54]. Briefly, the biotinylated rHDL particles were adsorbed on streptavidin (SA5) chip, and Δ20-rePON1 isozymes were injected over the immobilized and blank surfaces to obtain the net binding response. Binding rate constants were obtained by fitting of association and dissociation phases to single exponentials as described [Gaidukov, L. and D. S. Tawfik, Biochemistry, 2005. 44(35): p. 11843-54].
# The above results were further supported by affinity measurements using surface plasmon resonance. It was previously shown that HDL affinity of the intact rePON1 is very high (sub-nanomolar) and could not be determined accurately using surface plasmon resonance [Gaidukov, L., and Tawfik, D. S. (2005)Biochemistry 44, 11843-11854]. In contrast, binding affinity of the truncated variant lacking the first 20 amino acids of the hydrophobic N-terminus (Δ20-rePON1) could be amply determined. Therefore, the truncated variants of PON1 192 isozymes were prepared and their HDL binding affinities measured. Typical binding sensorgrams between Δ20-rePON1 isozymes and the immobilized HDL particles are portrayed in FIGS. 2A-C, and the derived rate and affinity constants are summarized in Table 2 herein below.
# apoA-I rHDL [2] = assay: Inactivation kinetics of rePON1 192 isozymes bound to rHDL-apoA-I (EDTA/β-mercaptoethanol, residual phenyl acetate hydrolysis); format: biochemical; details: for A2 (amplitude) (%): as printed in Table 2 beside the SPR constants of the Δ20 variants
# Procedure: (§1) FIG. 1 is a graph showing the inactivation kinetics of the wild-type rePON1-192K (SEQ ID NO:2), -192R (SEQ ID NO:4) and -192Q (SEQ ID NO:6) isozymes, bound to rHDL-apoA-I, or in buffer. Delipidated enzymes were incubated with a 50-fold excess of rHDL-apoA-I, or in activity buffer, and subjected to inactivation in the presence of EDTA (5 mM) and β-mercaptoethanol (10 mM) at 37° C. Residual activity at various time points was determined by initial rates of phenyl acetate hydrolysis (2 mM) and plotted as percent of the activity at time zero. Data were fitted to a single exponential for wild-type rePON1-192K on rHDL-apoA-I, and to double-exponentials for the remaining samples. The inactivation rate constants and amplitudes were derived from this fit;
# (§2) Inactivation rates of rePON1s were measured as described [Gaidukov, L. and D. S. Tawfik, Biochemistry, 2005. 44(35): p. 11843-54]. Briefly, rePON1 samples were delipidated using Bio-Beads SM-2 (BioRad) and incubated in buffer, or with 50-fold molar excess of rHDL-apoA-I. EDTA (10 mM) and β-mercaptoethanol (20 mM) were added, and samples were incubated at 37° C. Residual activity at different time points was determined with 2 mM phenyl acetate, and inactivation rates were fitted to either mono- or double-exponentials [Gaidukov, L. and D. S. Tawfik, Biochemistry, 2005. 44(35): p. 11843-54].
# (§3) The resultant inactivation profiles of wt rePON1 (SEQ ID NO: 2), rePON1-192Q (SEQ ID NO: 6) and rePON1-192R (SEQ ID NO: 4), were fitted to exponential curves as illustrated in FIG. 1.
# apoA-I rHDL [3] = assay: Stimulation of enzymatic activity of rePON1 192 isozymes by rHDL-apoA-I; format: biochemical; details: for Vmax (%) activation factor: relative to delipidated enzyme (100%)
# From the text: The activity is presented in relation to the initial activity of the delipidated enzymes (percentage of stimulation). Data were fitted to the Langmuir saturation curve, from which the activation factor (Vmax) and the apparent affinity (Kapp) were derived;
# Stimulated activity is presented as the percentage of the initial activity of the delipidated enzymes (corresponds to 100%). Data were fitted to the Langmuir saturation curve, from which the activation factor (Vmax) and the apparent affinity (Kapp) were derived;
# Delipidated rePONs at 0.2 μM were incubated with a range of rHDL concentrations (0.1-10 μM) for 3 hrs at 37° C. Enzymatic activity was determined in activity buffer (50 mM Tris pH 8.0, 1 mM CaCl2) with substrates at 1 mM concentrations as described [Gaidukov, L. and D. S. Tawfik, Biochemistry, 2005. 44(35): p. 11843-54]. 5-(thiobutyl)-butyrolactone (TBBL) was applied at 0.25 mM, and product formation was monitored spectrophotometrically at 412 nm using 5,5′-dithio-bis-2-nitrobenzoic acid (DTNB) as described [Khersonsky, O. and D. S. Tawfik, Chembiochem, 2006. 7(1): p. 49-53].
# Stimulation of the enzymatic activity was examined by incubating rePON1 isozymes with a range of rHDL concentrations (at the HDL/PON ratio of 0.5-50), and measuring the catalytic activity with various substrates as detailed hereinabove. FIGS. 3A-B illustrate the enzymatic activity of the rePON1 isozymes with δ-nonanoic lactone as substrate (FIG. 3A) and thiobutyl butiryl lactone (TBBL) as substrate (FIG. 3B). FIGS. 4A-D illustrate the enzymatic activity of the rePON1 isozymes with γ-dodecanoic lactone as substrate (FIG. 4A), δ-valerolactone as substrate (FIG. 4B), phenyl acetate as substrate (FIG. 4C) and paraoxon as substrate (FIG. 4D). Data were fitted to the Langmuir saturation curve to give the activation factor Vmax (in percent relative to the delipidated PON1) and the apparent affinity Kapp.
# [4] = Inactivation kinetics of rePON1 192 isozymes in activity buffer; format: biochemical; details: EDTA and β-mercaptoethanol, 37° C.
# Procedure: as §1, §2, §3
# [5] = substrate γ-dodecanoic lactone 1 mM
# [6] = substrate δ-nonanoic lactone 1 mM
# [7] = apoA-I rHDL, 50-fold molar excess, EDTA and β-mercaptoethanol, 37° C.
molecule,measurement,setting,value
B1,Kd,apoA-I rHDL [1],100 nM
same,koff,apoA-I rHDL [1],(2.0 ± 0.2) × 10^−2 s^−1
same,kon,apoA-I rHDL [1],(2.0 ± 0.3) × 10^5 s^−1 M^−1
same,fold higher HDL binding affinity than the Q isozyme,apoA-I rHDL [1]; relative to the Q isozyme,3 fold
same,A2 (amplitude) (%),apoA-I rHDL [2],100%
B2,Kd,apoA-I rHDL [1],110 nM
same,koff,apoA-I rHDL [1],(2.9 ± 0.2) × 10^−2 s^−1
same,kon,apoA-I rHDL [1],(2.6 ± 0.3) × 10^5 s^−1 M^−1
same,A2 (amplitude) (%),apoA-I rHDL [2],90%
B3,Kd,apoA-I rHDL [1],300 nM
same,koff,apoA-I rHDL [1],(4.2 ± 0.2) × 10^−2 s^−1
same,kon,apoA-I rHDL [1],(1.4 ± 0.5) × 10^5 s^−1 M^−1
same,A2 (amplitude) (%),apoA-I rHDL [2],70%
B4,reduction of Vmax compared to wt rePON1-192K,apoA-I rHDL [3]; all the substrates tested,50-80%
same,Kapp (apparent affinity for HDL stimulation),apoA-I rHDL [3]; substrate TBBL 0.25 mM,0.5 ± 0.1 µM
same,Vmax (%) activation factor,apoA-I rHDL [3]; substrate TBBL 0.25 mM,340 ± 4%
same,Vmax (%) activation factor,apoA-I rHDL [3]; substrate paraoxon 1 mM,128 ± 1%
same,Kapp (apparent affinity for HDL stimulation),apoA-I rHDL [3]; substrate phenyl acetate 1 mM,0.8 ± 0.1 µM
same,Vmax (%) activation factor,apoA-I rHDL [3]; substrate phenyl acetate 1 mM,165 ± 1%
same,Kapp (apparent affinity for HDL stimulation),apoA-I rHDL [3]; [5],0.6 ± 0.2 µM
same,Vmax (%) activation factor,apoA-I rHDL [3]; [5],382 ± 20%
same,Kapp (apparent affinity for HDL stimulation),apoA-I rHDL [3]; [6],0.6 ± 0.1 µM
same,Vmax (%) activation factor,apoA-I rHDL [3]; [6],778 ± 12%
same,Kapp (apparent affinity for HDL stimulation),apoA-I rHDL [3]; substrate δ-valerolactone 1 mM,1.1 ± 0.1 µM
same,Vmax (%) activation factor,apoA-I rHDL [3]; substrate δ-valerolactone 1 mM,481 ± 7%
same,"k1^inactiv (first, fast phase)",[4],5.2 h⁻¹
same,"k2^inactiv (second, slow phase)",[4],0.3 h⁻¹
same,"A2 (%) (amplitude of second, slow inactivation phase = HDL-bound fraction)",apoA-I rHDL [2]; [7],70%
same,"k1^inactiv (first, fast phase)",apoA-I rHDL [2]; [7],1.1 h⁻¹
same,"k2^inactiv (second, slow phase)",apoA-I rHDL [2]; [7],0.01 h⁻¹

# Source: patent US20100028924A1, “Method Of Diagnosing Pon1-Hdl Associated Lipid Disorders” (Rappaport Family Institute Research in the Medical Sciences, priority 2006, published 2010)
